{"source": "patent US20200384109A1", "about": "(Novartis, published 2020)", "binders": {"B1": {"name": "NOV638 (antibody, V domains shown)", "VH": "QVQLVQSGAEVKKPGASVKVSCKASGYTFTSYDIIWVRQATGQGLEWMGRMNPTGGNTDYVPKFQGRVTMTRDISLSTAYMELRSLTSEDTAVFYCARGVKSLGVSEIDYWGQGTLVTVSS", "VL": "QSALTQPPSVSAAPGQKVTISCSGSTSNIANNYVLWYQQLPGTAPKLLIYDNNKRPSGIPDRFSGSKSGTSATLGITGLQTADEADYYCGTWDNSLSVGVFGGGTKLTVLG", "notes": "also called antibody NOV638"}, "B2": {"name": "NOV581 (antibody, V domains shown)", "VH": "QVQLVESGGGLVQPGGSLRLSCVASGFTFSGYNMHWVRQAPGKGLEWVSYISNSGRTIYYADSVKGRFTLSRDNAKNSLYLQMNSLRAEDTAVYFCARDRDPQWLGNDALQIWGQGTMVTVSS", "VL": "EIVLTQSPGTLSLSPGERATLSCRASQSVSSGYLAWYQQKPGQAPRLLIYGASSRATGIPDRFSGSGSGTDFTLTISRLEPEDFAVYYCQQYGTSRKTFGQGTKVEIKR", "notes": "also called antibody NOV581; clone NOV581"}, "B3": {"name": "NOV530 (antibody, V domains shown)", "VH": "QVQLQESGPGLVKPSQTLSLTCTVSGGSISGGGYYWSWIRQHPGKGLEFIGYIYYNRGTYYNPALKSRLTISVDTSKNDFSLKLSSVSAADTAVYYCARCVLGGYGSDAFDRWGQGTTVTVAS", "VL": "EIVLTQSPVTLSLSPGERAILSCRASQSVSSHLAWYQQKPGQAPRLLIYDASSRANGIPARFSGSGSGTDFTLTISSLAPEDFAVYYCQQRSSWPPSLTFGGGTKVEIRR", "notes": "also called antibody NOV530; cross-neutralizing IgG NOV530"}}, "key": {"[1]": {"target": "T1, BKV serotype IV (ST4) virus-like particles (VLPs) (BK virus serotype IV, UniProt P14996 1-362)", "T1 construct": "VLP made by expressing VP1 in Sf9 insect cells and composed of 72 VP1 pentamers; also called BKV ST4 VLP; BKV ST4", "assay": "ELISA on plates coated with BKV ST1 or ST4 VLPs (100 ng/well)", "protocol": "The binding of antibodies to VLPs were analyzed by ELISA. Briefly, Nunc MaxiSorp 384-well plates (Thermo Scientific) were coated with 100 ng/well BKV VLPs to BK serotype I (ST1) or serotype IV (ST4) overnight. Antibodies were serially diluted in PBS with 0.5% BSA and allowed to bind antigen-coated plates for 2 hours. […] Plates were washed with PBS and tetramethylbenzidine (TMB) microwell peroxidase substrate (SeramunBlau Fast, Seramun, Germany) was used to develop the reactions."}, "[2]": {"target": "T2, BKV serotype I (ST1) virus-like particles (VLPs) (BK virus serotype I, UniProt P03088 1-362)", "T2 construct": "VLP made by expressing VP1 in Sf9 insect cells and composed of 72 VP1 pentamers; also called BKV ST1 VLP; BKV ST1", "T2 chain": "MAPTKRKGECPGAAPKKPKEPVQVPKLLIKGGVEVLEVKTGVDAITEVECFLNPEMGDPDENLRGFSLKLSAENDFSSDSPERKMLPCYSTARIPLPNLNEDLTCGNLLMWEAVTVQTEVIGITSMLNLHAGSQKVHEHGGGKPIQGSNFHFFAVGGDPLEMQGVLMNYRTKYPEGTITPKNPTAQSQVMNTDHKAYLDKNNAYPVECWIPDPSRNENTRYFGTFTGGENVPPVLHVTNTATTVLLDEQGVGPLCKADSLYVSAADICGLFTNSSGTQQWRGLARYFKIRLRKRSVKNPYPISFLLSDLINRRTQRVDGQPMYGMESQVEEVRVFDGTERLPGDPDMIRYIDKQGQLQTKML", "assay": "solution equilibration titration (SET), antibody 1 pM, BKV VLPs in solution, MSD read-out"}, "[3]": {"target": "T1, BKV serotype IV (ST4) virus-like …", "assay": "solution equilibration titration (SET) with BKV VLPs"}, "JC virus (JCV)": {"target": "JC virus (JCV) (JC virus, UniProt P03089 1-354)", "assay": "cell-based or functional assay"}}, "data": [{"binder": "B1", "values": [{"measurement": "binding result", "setting": "[1]", "result": "no binding"}]}, {"binder": "B2", "values": [{"measurement": "Kd", "setting": "[2]", "result": "< 0.05", "unit": "nM"}, {"measurement": "binding result", "setting": "[3]", "result": "no binding"}]}, {"binder": "B3", "values": [{"measurement": "Kd", "setting": "[2]", "result": "< 0.05", "unit": "nM"}, {"measurement": "EC50 of virus neutralization", "setting": "JC virus (JCV)", "result": "< 1", "unit": "nM"}]}]}
